We go through 30 sequences from the nanobody polyreactivity screen of Harvey et al. (2022).

This series in a line: yeast display, Sf9 membrane polyspecificity reagent, FACS + sequencing; frameworks hold sequencing errors. The essentials:
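Using colony PCR, genes from sorted yeast display clones were amplified, then sequenced on MiSeq at 2 × 250 and filtered by CDR length. The clones had been stained with 10% biotinylated, detergent-solubilized Sf9 membrane reagent for 1 hour at 4 °C and sorted by FACS into low and high (top ~1%) gates on anti-HA and streptavidin fluorescence. Polyreactivity labels come from the gate of origin.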
As to “QVQLVESGGGLFQAGGSLRLSCAASASIIPHNAMGWYRQAPGKERELVASITSRGGITYYADSVKGRFTISRDNAKNTVYLQMNSLKPEDTAVYYCAKDHAYTSAPHQYASEYYYWGQGTQVTVSS”, the “polyreactivity (PSR sort gate)” value is “low polyreactivity”.

Turning to “QVQLVESGGGLFQAGGSLRLSCAASGFIFARNAMSWYRQAPGKERELVAAISRNGGRTSYADSVKGRFTISRDNAKNTVYLQMNSMKAEDTAVYYCAKSQGYVSWTGAYSYDYWGQGTQVTVSS”, the “polyreactivity (PSR sort gate)” value is “high polyreactivity”.

On to “QVQLVESGGGLFQAGGSLRLSCAASGFIFLLNAMGWYRQAPGKERELVAAINSDGSTNYADSVKGRFTISRDNAKNTFYLQMNSLKPEDTGVYYCAARSFTLRGYDYWGQGTQVTVSS”, for which the “polyreactivity (PSR sort gate)” value was “low polyreactivity”.

Consider “QVQLVESGGGLFQAGGSLRLSCAASGFNFDSNVMGWYRQAPGKERELVAAITGDDTTYYADSVKGRFTISRDNAKNTVYLQMNSLKPEDTAVYYCAADETESLEYTAYDMYYWGQGTQVTVSS”, for which the “polyreactivity (PSR sort gate)” value is “low polyreactivity”.

As for “QVQLVESGGGLFQAGGSLRLSCAASGFSFYGNTMGWYRQAPGKERELFASITSGSSTHYADSVKGRFTISRDNAKNTVYLQMNSLKPDDTAVYYCNVEDIQFGKYDYWGQGTQVTVSS”, the “polyreactivity (PSR sort gate)” value was “low polyreactivity”.

Turning to “QVQLVESGGGLFQAGGSLRLSCAASGFTFAFNAMGWYRQAPGKERELVAGITSGGRTNYADSVKGRFTISRDNGKNTVYLQMNSLKPEDTAVYYCAADRPYYKGYVPPYYKYRYDYWGQGTQVTVSS”, the “polyreactivity (PSR sort gate)” value was “high polyreactivity”.

In the case of “QVQLVESGGGLFQAGGSLRLSCAASGFTFARYAMGRSRTAPAKERELVARISWSGGSTYYADSVKGRFTISRDNAKNTVYLLMYSLKTEDTEVYYCAADGWYYRYPRDDYWGQGTQETVSS”, the “polyreactivity (PSR sort gate)” value is “low polyreactivity”.

As for “QVQLVESGGGLFQAGGSLRLSCAASGFTFGHNSMGWYRQAPGKERELVAAISYSGGSTYYADSVKGRFTSSRDNAKNTVYLQMNSLKPEDTAVYYCAKRSHTDSVPGVYNEGDFWGQGTQVTVSS”, the “polyreactivity (PSR sort gate)” value was “low polyreactivity”.

Consider “QVQLVESGGGLFQAGGSLRLSCAASGFTFHRNAMGWYRQAPGKERELVAAITLNGGSSTYYADSVKGRFTISRDNAKNTVYLQMNSLKAEDTAVYSCALDSYSYTFSKNSDPAEYEYWGQGTQVTVSS”, for which the “polyreactivity (PSR sort gate)” value was “low polyreactivity”.

As for “QVQLVESGGGLFQAGGSLRLSCAASGFTFIPYTMGWYRQAPGKERELVASIISGGSTNYADSVKGRFTISRDNAKNTVYFQMKSLKPEDTAVYYCAAVYFYYCYGWYYYWGQGTQVTVSS”, the “polyreactivity (PSR sort gate)” value is on record as “high polyreactivity”.

For the sequence “QVQLVESGGGLFQAGGSLRLSCAASGFTFNRNAMGWYRQAPGKERELVAAISWSGGSTYYADSVKGRFTISRDNAKNPVYLQMNSLKPEDTAVYYCAKGYRRVYGPFYYWGQGTQVTVSS”, the “polyreactivity (PSR sort gate)” value is “low polyreactivity”.

For “QVQLVESGGGLFQAGGSLRLSCAASGFTFPDYAMGSYRQAPGKERELVAAISSDGSTYDADSVKGRFTISRDIAKTTVYLQMNSLKPEDTAVYYCAAYVVWLYGYAYWGQGTQVTVSS”, the “polyreactivity (PSR sort gate)” value is on record as “low polyreactivity”.

As for “QVQLVESGGGLFQAGGSLRLSCAASGFTFWYYAMGWYRQAPGKERELVAAISASGGSTYYADSVKVRFTISRDNAKNTVYLQMNCLKPEDTAVYYCAARYPSKFYNTYDRDYWGQGTQVTVSS”, the “polyreactivity (PSR sort gate)” value was “high polyreactivity”.

“QVQLVESGGGLFQAGGSLRLSCAASGFTFYRNAMGWYRQAPGQERELVAAITRGGSTTYADSVKGRFTISRDNAKNTVYLQMNSLKPEDTAVYYCAKGARADVPGYYKYYYWGQGTQVTVSS”: the “polyreactivity (PSR sort gate)” value is listed as “high polyreactivity”.

For the sequence “QVQLVESGGGLFQAGGSLRLSCAASGGIFSLYAMGWYRQAPGTERELVAVISSTCSTHYADSVKGRFTISRDNAKKTVSLLMNSLKPEDTAVYYCNADARTSRKKFGYWGQGTQVTVSS”, the “polyreactivity (PSR sort gate)” value is on record as “low polyreactivity”.

On to “QVQLVESGGGLFQAGGSLRLSCAASGGTFDWYTMGWYRQAPGKERELVADITSGGSTYYADSVKGRFTISRDNAKNTVYLQMNSLKPEDTALYYCNKRDKVTYSYDYWGQGTQVTVSS”, for which the “polyreactivity (PSR sort gate)” value was “high polyreactivity”.

Consider “QVQLVESGGGLFQAGGSLRLSCAASGIIFSSNAMGWSRQAPGKERELVAAISSSGSRTYYAASVKGRFTISRDNAKNTVYFQMNSLKPEDTAVYYCAARTISSLNHHGYWGQGTQVTVSS”, for which the “polyreactivity (PSR sort gate)” value is listed as “high polyreactivity”.

“QVQLVESGGGLFQAGGSLRLSCAASGINFYKYSMGWYRQAHRKERELVAAITSGGGRTYYADSVKGRFTISRDNAKNTVYLQMNSLKPEDTAVYYCAATRPASYAAYDYWGQGTQVTVSS”: the “polyreactivity (PSR sort gate)” value is reported as “high polyreactivity”.

For the sequence “QVQLVESGGGLFQAGGSLRLSCAASGLIFGRYAMGWYRPAPGKERELVAAISRSGGSTHYADSVKGRFTISRDNAKNTVYLQMNSLKPEDTAVYYCAAVWPFDRSRMDYWGQGTQVTVSS”, the “polyreactivity (PSR sort gate)” value is reported as “high polyreactivity”.

Consider “QVQLVESGGGLFQAGGSLRLSCAASGLTFQRYDMGWYRQAPVKEIELVAAINYSGGRTYYADSVKGRFTISRDNAKNTVYLQMNSLKPEDTAVYYCAARVRNTYVYQSWDGMYYWGQGTQVTVSS”, for which the “polyreactivity (PSR sort gate)” value is listed as “high polyreactivity”.

Consider “QVQLVESGGGLFQAGGSLRLSCAASGLTLYFYVMGWYRQAPGKERELVAAISSTGSTYYADSVKGRFTISRDNAKNTVYLQMNSLKPEDTAVYYCAARYGGHYGAEYYWGQGSQVTVSS”, for which the “polyreactivity (PSR sort gate)” value is reported as “high polyreactivity”.

With “QVQLVESGGGLFQAGGSLRLSCAASGRIFGAYTMGWYRQAPGKERELVAAISDGGDTYYADSVKGRFTISRDNAKNTVYLQMNSLKPEDTAVYYCAADAPYYAYYWYPSSLGIYGYWGQGTQVTVSS”, the “polyreactivity (PSR sort gate)” value was “low polyreactivity”.

As to “QVQLVESGGGLFQAGGSLRLSCAASGRIFGPYAMGWYRQAPGKERELVATITLRGGSTYYADSVKGRFTISRDNAKNTVYLQMNSLKPEDTAVYYCNARYYSLVYRYDYWGQGTQVTVSS”, the “polyreactivity (PSR sort gate)” value is “high polyreactivity”.

Turning to “QVQLVESGGGLFQAGGSLRLSCAASGRIFQHNTMGWYRQAPGKEREFVAAIRRSGGSTYYADSVKGRFTISRDNAKNTVYLQMNSLKPEDTAVFYCAARDYPTGTRRWGGGDSWGQGTQVTVSS”, the “polyreactivity (PSR sort gate)” value is given as “low polyreactivity”.

Consider “QVQLVESGGGLFQAGGSLRLSCAASGRIFSCYAMGWYRQAPGKERELVAAITVRGSTYYADSVKGSFTISRDNAKNTVYLQMNSLKPEDTAVYYCAAGGYPGTTYYGYDFWGQVTQVTVSS”, for which the “polyreactivity (PSR sort gate)” value is recorded as “low polyreactivity”.

“QVQLVESGGGLFQAGGSLRLSCAASGRIFYTNVMGWYRPAPGKERELVAAISTGGGRTYYADSVKGRFTISRDYAKNTVYLQMNSLKPEDTAVYYCAADWRTKGYDSLGQGTQVTVSS”: the “polyreactivity (PSR sort gate)” value is “high polyreactivity”.

On to “QVQLVESGGGLFQAGGSLRLSCAASGRTFHGYAMGWYRQAPGKERELVARINWSDGRTYYADSVKGRFTISRDNAKNTVYLQMNSLKPEDTAVYYCAADKTVSYAPAWYYYWGQGTQVTVSS”, for which the “polyreactivity (PSR sort gate)” value is “low polyreactivity”.

As to “QVQLVESGGGLFQAGGSLRLSCAASGRTFKPNTMGWYRQAPGKERELVAAITWRGGSTYYADSVKGRFTISRDNAKNTVYLQMNSLKPEDTAVYYCASARVRTGTGMDYWGQVTQVTVSS”, the “polyreactivity (PSR sort gate)” value is given as “low polyreactivity”.

As for “QVQLVESGGGLFQAGGSLRLSCAASGSIFDVNAMGWYRQAPGKEREFVAAISDSGGSTYYADSVKGRFTMSRDNAKNTVSLPMNSLKPEDTAVYYCNADWSWYNYYDFDYWGQGTQVTVSS”, the “polyreactivity (PSR sort gate)” value is “low polyreactivity”.

For “QVQLVESGGGLFQAGGSLRLSCAASGSIFWGYDMGWYRQPPGKERELGARISYSGGSTSYADSVKGRFTISRDNAKNTVYLQMNSLKPEDTAVYYCAADEGGFWWTYPYDCWGQGTQVSVSS”, the “polyreactivity (PSR sort gate)” value was “low polyreactivity”.
